B1: Hammerhead Ribozyme (parent)
chain: ACCGGAUGUGCUUUCCGGUCUGAUGAGUCCGUGAGGACGAAACAG

Variants of: B1
Assay: self-cleavage, relative activity (ratio to wild type); higher = more cleavage; co-transcriptional

Variant | self-cleavage
AGCGGAUGUGCAUUCCGGUCUGAUGAGUCCGUGAGGACGAAACAG | 0.335
ACCGGAUGUGCUUUCCGGUCUGAUGAGUACGUGAGGACGAAACAU | 0.35
CCCGGAUGUGCUUUCCGGCCUGAUGAGUCCGUGAGGACGAAACAG | 0.365
ACCAGAUGUGCCUUCCGGUCUGAUGAGUCCGUGAGGACGAAACAG | 0.305
ACCGGAUGUGCUAUCCGGUCUGUUGAGUCCGUGAGGACGAAACAG | 0.361
ACCGGAUGUGCUUUUCGGUCUGAUGAGUCCGAGAGGACGAAACAG | 1
ACCGGAUGUGCUUUCCGGUCUGAUGAGUCCGUGAGGACGAAUCAC | 0.404
ACCGGAUGUGCUUUCCGGUCUGAUGAGUCCGUGAGGGCGAUACAG | 0.378
ACCGGAUUUGCGUUCCGGUCUGAUGAGUCCGUGAGGACGAAACAG | 0.993
ACCGGAUGUGCUUUCCGGUCUGAUGAGUCCGUAAGGACGAGACAG | 0.384
ACCGGAUGUGCGUUCCGGUGUGAUGAGUCCGUGAGGACGAAACAG | 0.32
ACCGGAUGUGCUUUCCGGUCUUAUGAGUGCGUGAGGACGAAACAG | 0.317
ACCGGAUGUGCUUUCCGGUUUGAUGAGUCCGUGAGGACGAAACAU | 0.387
ACCGGAUGUGCUUUCCGGUCUGAUGAGUCCGUGAGGACGGAACAC | 0.466
ACCGGAUGUGCUUUCCGGUCUGAUGAGUCCGUGAGGACGAAAUAG | 0.608
ACCGGAUGUGCUUUCCGGUCUGAUGCGUCCGUAAGGACGAAACAG | 0.655
ACCGGAUGUGCUUUACGCUCUGAUGAGUCCGUGAGGACGAAACAG | 0.364
ACCGGAUGUGCGUUCCGGUCUGAUGAGUCCGUGAGGACGAAACAA | 0.719
ACCGGAUGGGCUUUCCGGUCUGGUGAGUCCGUGAGGACGAAACAG | 0.385

Variant | self-cleavage
ACCGGAUGUGCUUUCCGGUCUGAUGAGUCAGUGGGGACGAAACAG | 0.628
ACCGGAUGUGAUUUACGGUCUGAUGAGUCCGUGAGGACGAAACAG | 0.851
ACCGGAUGUGCUUUCCGGUCUGAUCAGUCCGUGCGGACGAAACAG | 0.29
ACCGGAUGUGCUAUCCGGUUUGAUGAGUCCGUGAGGACGAAACAG | 0.681
GCCGGAUGUGCUUUCCGGUCGGAUGAGUCCGUGAGGACGAAACAG | 0.812
ACCGGAUGUGCGUUCCGCUCUGAUGAGUCCGUGAGGACGAAACAG | 0.61
ACAGGAUGUGCUUUCCGGUCUGAGGAGUCCGUGAGGACGAAACAG | 0.574
ACUGGAUGUGCUUUCCGGUCUGAUGAGUCCGUGAGGACGAAACAU | 0.599
ACCGGAUGUGCUUUCCGCUCUGAGGAGUCCGUGAGGACGAAACAG | 0.365
ACCGGAUGUGCUUUCCUGUCUGACGAGUCCGUGAGGACGAAACAG | 0.697
ACCGGAUGUGCUUUCCGGUCUGAUGGGUCAGUGAGGACGAAACAG | 0.307
ACCGGAUGUGCUUUCCGGUCUGAUGACUCCGUGAGGCCGAAACAG | 0.491
ACCGGAUGUGCUUUCCGGUCUGAUGAGUCCGUAAGGACUAAACAG | 0.344
ACCGGAUGUGUUUUCCGGUCUGAUGAGUCCGUGAGGACGAAACGG | 1.35
ACCUGAUUUGCUUUCCGGUCUGAUGAGUCCGUGAGGACGAAACAG | 0.933
ACCGGAUGUGCCUUCCGGUCUUAUGAGUCCGUGAGGACGAAACAG | 0.36
ACCGGAUGUGCUUACCGGUCUGAUGAGACCGUGAGGACGAAACAG | 0.656
ACCGGAUGUGGUUUCCGGUCUGAUGAGUCCGUGAGGACGAAAUAG | 0.483
ACCGGAUGUCCUUUCCGGUCUGAUGAGUCCGUGAGGACGAAGCAG | 0.278

Variant | self-cleavage
ACCCGAUGUGCUUUCCGGUCUGAUGAGUUCGUGAGGACGAAACAG | 0.567
AGCGGAUGUGCUUUCCGGUCUGAUGAGUCCGUGAGGACGGAACAG | 0.266
AGCGGAUGUGCUUUCCGGGCUGAUGAGUCCGUGAGGACGAAACAG | 0.275
ACCGGAUGUGCUUCCCGGUCUGAUGACUCCGUGAGGACGAAACAG | 0.54
ACCGGAUGUGCUUUCCGGUCUGAUGAGUCCGUGAGGAUGAGACAG | 0.352
ACCGGAUGUGCUUUCCGGUCUGAUGCGUUCGUGAGGACGAAACAG | 0.448
ACCGGAUGUGCUUUCCGGCCUGUUGAGUCCGUGAGGACGAAACAG | 0.372
ACCGGAUGCGCUUUCCGGUCUGAUGAGUCCGUAAGGACGAAACAG | 0.952
ACCGGACGUGCUUUCCGGUCUGAUGACUCCGUGAGGACGAAACAG | 0.598
ACCGGAUGUGCUGUCCGGUCUGACGAGUCCGUGAGGACGAAACAG | 0.83
ACCGGAUGUGCUUUCCGGUCUGGUGAGUCCGUGAGGCCGAAACAG | 0.3
ACCGGAUGUGCUUUCCGGUCUGAGUAGUCCGUGAGGACGAAACAG | 0.338
ACCCGAUGUGCUUUCCGGUCUGAUGAUUCCGUGAGGACGAAACAG | 0.326
ACCGGAUGUGCUUUCCGGUAUGAUCAGUCCGUGAGGACGAAACAG | 0.287
ACCGGAUGUGCUUUCCGGGCUGAUGAGUCCGUGAGCACGAAACAG | 0.351
ACCGGAUGUGCUUUCCGGUCUGAUGAGUCCAUGAGGCCGAAACAG | 1.17
ACCGGAUGUGCUUUCCGGUCUGAUGAGUCCGUGAGGAAGGAACAG | 0.369
ACAGGAUGUGCUUUCAGGUCUGAUGAGUCCGUGAGGACGAAACAG | 0.596
ACCGGACGUGCUUUCCGGUCUGAUGAGUCCGUGAGGGCGAAACAG | 0.771
